Experimental data from paper PMC4274662, “A novel cytosolic NADH:quinone oxidoreductase from Methanothermobacter marburgensis” (Bioscience Reports, 2014).

Key:
Type in all cases: biochemical, Methanothermobacter marburgensis
[1] = substrate: CN(C)c1ccc(N=Nc2ccccc2C(=O)O)cc1; experiment: reduction with electron donor, absorbance; details: electron acceptor, donor not stated (presumably NADH), varied substrate not stated, general method varies the donor, 50 mM Mops pH 7.4, 30°C
[2] = substrate: NC(=O)C1=CN([C@@H]2O[C@H](COP(=O)(O)OP(=O)(O)OC[C@H]3O[C@@H](n4cnc5c(N)ncnc54)[C@H](OP(=O)(O)O)[C@@H]3O)[C@@H](O)[C@H]2O)C=CC1; experiment: purified protein; details: 1 mM coenzyme Q1 as acceptor, 50 mM Mops pH 7.4, 30°C
[3] = substrate: NC(=O)C1=CN([C@@H]2O[C@H](COP(=O)(O)OP(=O)(O)OC[C@H]3O[C@@H](n4cnc5c(N)ncnc54)[C@H](O)[C@@H]3O)[C@@H](O)[C@H]2O)C=CC1; experiment: purified protein; details: 1 mM coenzyme Q1 as acceptor, 50 mM Mops pH 7.4, 30°C

B1: MmNQO (Methanothermobacter marburgensis str. Marburg) (protein)
chain: MHVYILFAHPSRKSFSREVLEAFTEGLSEAGHTYEVGDLYRMNFRSELSQEEYLREISQEAGSPLPEDVMEEHERIGRADALAFIYPLWWSDCPAKLKGWFDRVWTYGYAYFYEDGERGTRIDIEKAVVLCSAGHTEEDLEGTGIAESMRSVMLGDRLLGVGVKNVTMEILGGMVPGDDSCREINLMRARRAGRNL
notes: full length 196 residues, N-terminal MAS added, non-cleavable C-terminal His6 tag (EHHHHHH) kept; pET21, E. coli BL21(DE3); 23538 Da; homodimer with FMN
Km [1]: 683 µM
kcat [1]: 6.34 min⁻¹
Km [2]: 111.6 µM
kcat [2]: 0.243 s⁻¹
kcat/Km [2]: 2170 M⁻¹ s⁻¹
Km [3]: 96.8 µM
kcat [3]: 0.26 s⁻¹
kcat/Km [3]: 2680 M⁻¹ s⁻¹
